According to patent publication US6632794B1, “Insulin-like growth factor agonist molecules” (Genentech, Inc., priority 1997, dated 2003):

What was measured:
[1] = biological target: T1, human Type 1 IGF receptor (Homo sapiens, UniProt P08069); experiment: KIRA for phosphorylation of the human Type 1 receptor in MCF-7 cells; assay type: cell-based; settings: substance alone
T1 construct: host or cells: MCF-7

[2] = biological target: T2, recombinant human (rh) IGFBP-1 (Homo sapiens, UniProt P08833); experiment: ^125I-IGF-I competitive binding plate assay, IGFBP-1; settings: displacement of ^125I-IGF-I, FIG. 6
T2 sequence (P08833 26-259): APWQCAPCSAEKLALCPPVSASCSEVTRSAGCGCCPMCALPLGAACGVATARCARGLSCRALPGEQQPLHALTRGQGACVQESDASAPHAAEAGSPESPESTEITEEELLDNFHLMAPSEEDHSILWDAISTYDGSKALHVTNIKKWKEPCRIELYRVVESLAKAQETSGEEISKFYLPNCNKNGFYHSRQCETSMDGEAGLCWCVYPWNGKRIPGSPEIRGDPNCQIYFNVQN
Protocol: (§1) The mutant (Leu^24,Ala^31)hIGF-I was also tested for its ability to displace radio-labeled rhIGF-I off the IGFBPs in a competitive binding assay. This assay involves coating recombinant human (rh) IGFBP-1 or rhIGFBP-3 (160 ng/ml) onto 96-well plates overnight, blocking the plates for one hour with 0.5% BSA, adding rhIGF-I (250-0.08 ng/ml) or (Leu^24,Ala^31)hIGF-I for 1 hour, then adding 20,000 cpm of ^125I-IGF-I and incubating for 2 hours before washing and counting.
(§2) As an additional assay of peptide activity, several peptides were tested in an assay using ^125I-labeled IGF-I to measure inhibition of IGFBP binding, as described in Example 1 (Assay 3). Serial dilutions of peptide were added to an IGFBP-1 or an IGFBP-3 plate. Thereafter, ^125I-labeled IGF-I was added and the plates were incubated for 2 hours. The plates were then washed and counted to determine the amount of bound IGF-I.

IGFBP-3 = IGFBP-3 (Homo sapiens, UniProt P17936); experiment: ^125I-IGF-I competitive binding plate assay, IGFBP-3; settings: displacement of ^125I-IGF-I, FIG. 7
Chain of IGFBP-3 (P17936 28-291): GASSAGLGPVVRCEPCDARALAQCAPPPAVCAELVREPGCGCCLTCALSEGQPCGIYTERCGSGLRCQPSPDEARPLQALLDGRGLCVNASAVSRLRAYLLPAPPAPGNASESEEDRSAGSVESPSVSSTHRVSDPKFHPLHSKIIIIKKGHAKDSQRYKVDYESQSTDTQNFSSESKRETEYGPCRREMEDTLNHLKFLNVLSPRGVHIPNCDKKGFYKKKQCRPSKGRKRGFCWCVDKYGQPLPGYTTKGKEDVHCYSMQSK
Protocol: as §1, §2

[3] = biological target: T3, Type 1 IGF receptor (derived from placental membranes) (Homo sapiens, UniProt P08069); settings: Type 1 IGF receptor from placental membranes; Bayne et al.; read-out: half maximal inhibition of ligand binding; cited from earlier work
T3 construct: Type 1 IGF receptor (derived from placental membranes); host or cells: placental membranes
T3 sequence (P08069 31-736 limits assumed): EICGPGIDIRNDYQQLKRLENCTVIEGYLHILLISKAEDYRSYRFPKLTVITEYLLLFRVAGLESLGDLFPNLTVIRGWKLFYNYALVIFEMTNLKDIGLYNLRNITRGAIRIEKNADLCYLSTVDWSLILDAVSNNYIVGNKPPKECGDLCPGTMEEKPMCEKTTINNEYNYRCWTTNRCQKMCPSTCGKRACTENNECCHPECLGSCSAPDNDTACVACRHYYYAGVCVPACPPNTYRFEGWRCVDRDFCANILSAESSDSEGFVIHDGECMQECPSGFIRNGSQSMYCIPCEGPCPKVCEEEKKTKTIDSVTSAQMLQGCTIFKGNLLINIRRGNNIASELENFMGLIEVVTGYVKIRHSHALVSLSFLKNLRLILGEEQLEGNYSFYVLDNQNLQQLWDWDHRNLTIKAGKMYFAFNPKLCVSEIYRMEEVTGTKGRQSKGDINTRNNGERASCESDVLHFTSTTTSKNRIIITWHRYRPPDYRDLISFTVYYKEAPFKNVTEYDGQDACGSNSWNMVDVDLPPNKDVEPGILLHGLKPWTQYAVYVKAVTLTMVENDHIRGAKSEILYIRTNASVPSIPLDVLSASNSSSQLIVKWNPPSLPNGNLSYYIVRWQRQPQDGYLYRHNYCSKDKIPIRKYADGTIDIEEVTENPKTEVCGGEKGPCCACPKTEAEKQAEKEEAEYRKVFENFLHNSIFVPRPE
T3 sequence (P08069 741-1367 partner limits assumed): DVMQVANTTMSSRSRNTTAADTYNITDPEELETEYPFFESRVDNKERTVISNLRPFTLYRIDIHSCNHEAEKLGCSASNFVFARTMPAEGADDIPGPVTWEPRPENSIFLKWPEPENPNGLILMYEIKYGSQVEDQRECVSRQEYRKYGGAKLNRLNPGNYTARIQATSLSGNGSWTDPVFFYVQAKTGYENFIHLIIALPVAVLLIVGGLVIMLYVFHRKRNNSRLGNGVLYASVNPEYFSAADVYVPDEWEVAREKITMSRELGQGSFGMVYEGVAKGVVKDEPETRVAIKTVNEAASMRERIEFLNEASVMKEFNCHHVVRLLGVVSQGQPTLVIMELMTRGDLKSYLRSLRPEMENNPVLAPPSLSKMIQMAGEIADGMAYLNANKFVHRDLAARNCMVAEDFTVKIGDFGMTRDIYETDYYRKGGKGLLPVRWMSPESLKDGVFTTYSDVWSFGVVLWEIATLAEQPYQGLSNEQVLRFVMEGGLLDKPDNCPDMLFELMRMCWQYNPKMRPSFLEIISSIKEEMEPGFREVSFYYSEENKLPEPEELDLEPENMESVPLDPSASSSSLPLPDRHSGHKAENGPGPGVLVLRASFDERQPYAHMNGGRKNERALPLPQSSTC

dwarf rats = experiment: Long-term administration to GH-deficient dwarf (dw/dw) rats; assay type: in vivo, rat; settings: 150 μg of IGF-I agonist as printed

T1 sequence (P08069 31-736 limits assumed): as the sequence (P08069 31-736 limits assumed) above
T1 sequence (P08069 741-1367 partner limits assumed): as the sequence (P08069 741-1367 partner limits assumed) above

## (Leu^24,Ala^31)hIGF-I
[1]
  phosphorylation of the IGF-I receptor (KIRA): did not cause any change in receptor phosphorylation
[2]
  binding affinity to recombinant IGFBP-1: affinity only several fold different from that of wild-type hIGF-I
IGFBP-3
  binding affinity to recombinant IGFBP-3: affinity only several fold different from that of wild-type hIGF-I
[3]
  IC50: 2000 nM
Dwarf rats
  total IGF-I (rat and human) in blood: rise in total IGF-I
